Experimental data as given in the supplement of paper PMC7125110.
± gives the standard error. Fewer inactive variants are shown than the library holds.

B1: glmS ribozyme (parent)
chain: AUAAAAGCGCCAGAACUACAGAAAUGUAGUUGACGAGGAGGAGGUUUAUCGAAUUUUCGGCGGAUGCCUCCAAA

Experiments:
Conditions in all cases: with glucosamine-6-phosphate
[1] = variants of: B1; experiment: self-cleavage kobs at 40 uM GlcN6P; higher = faster cleavage; RNA array
How it was run: (§1)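 Ribozyme variants carrying barcodes were transcribed in situ on sequenced MiSeq chips by E. coli RNA polymerase and tracked at 37 °C with a hybridised Cy3 probe. They were exposed to 40 μM to 10 mM glucosamine-6-phosphate in HEPES/KCl/Mg(OAc)2 buffer. kobs came from exponential decay fits of normalised per-tile medians, and kcat and KM from weighted Michaelis–Menten fits.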

[2] = variants of: B1; experiment: self-cleavage kobs at 160 uM GlcN6P; higher = faster cleavage; RNA array
How it was run: as §1

[3] = variants of: B1; experiment: self-cleavage kobs at 640 uM GlcN6P; higher = faster cleavage; RNA array
How it was run: as §1

[4] = variants of: B1; experiment: self-cleavage kobs at 2500 uM GlcN6P; higher = faster cleavage; RNA array
How it was run: as §1

[5] = variants of: B1; experiment: self-cleavage kobs at 10000 uM GlcN6P; higher = faster cleavage; RNA array
How it was run: as §1

Variant | self-cleavage kobs at 40 uM GlcN6P [1] [s⁻¹] | self-cleavage kobs at 160 uM GlcN6P [2] [s⁻¹] | self-cleavage kobs at 640 uM GlcN6P [3] [s⁻¹] | self-cleavage kobs at 2500 uM GlcN6P [4] [s⁻¹] | self-cleavage kobs at 10000 uM GlcN6P [5] [s⁻¹]
U46C C61U | < 1e-05 | < 1e-05 | < 1e-05 | < 1e-05 | –
G7A A48C G59A A64G | < 1e-05 | – | – | – | < 1e-05
U30C A33C U47G | < 1e-05 | – | – | – | < 1e-05
G7C C11U | < 1e-05 | < 1e-05 | < 1e-05 | < 1e-05 | < 1e-05
C11U G59C C71G | < 1e-05 | – | – | – | –
G51U A53G A64G U65G | < 1e-05 | – | – | – | < 1e-05
A6G C8U U57C C67U | < 1e-05 | – | – | – | < 1e-05
C10U G63U A64U | < 1e-05 | – | – | – | –
G43C U56C | < 1e-05 | < 1e-05 | < 1e-05 | – | < 1e-05
A12C G59U C68G | < 1e-05 | – | – | – | –
C8A A53C | < 1e-05 | < 1e-05 | < 1e-05 | < 1e-05 | < 1e-05
U47G U56A C58U A64G U69A C70A | 5.21e-05 ± 2.2e-05 | – | – | – | 3.66e-05 ± 1.4e-05
A6C G62A G66C U69A | < 1e-05 | – | – | – | < 1e-05
C10A C11U A36U C70U C71G | 0.000371 ± 9.5e-05 | – | 0.000527 ± 0.00015 | – | 0.000335 ± 6.3e-05
G9C A14G | < 1e-05 | < 1e-05 | < 1e-05 | < 1e-05 | < 1e-05
C16U C50G | 4.26e-05 ± 1.3e-05 | 3.28e-05 ± 1.4e-05 | 4.35e-05 ± 1.3e-05 | – | –
G7U G41U | < 1e-05 | < 1e-05 | < 1e-05 | < 1e-05 | < 1e-05
A36U G66U | < 1e-05 | < 1e-05 | < 1e-05 | – | < 1e-05
U31C G41U C70G | 0.000329 ± 7e-05 | – | – | – | 0.00237 ± 0.00061
G7C A33G | < 1e-05 | < 1e-05 | < 1e-05 | – | < 1e-05
G13A G43U | < 1e-05 | < 1e-05 | < 1e-05 | – | –
A15U G38U C50G | 0.000125 ± 3.7e-05 | – | – | – | –
G37C C50U C70A | 0.00229 ± 0.00095 | – | – | – | –
C10A U30C C61A | < 1e-05 | – | – | – | –
U31A U45A G62U C68A | < 1e-05 | – | – | – | –
